This note sets out measurements from article PMC3068846.

The assay has as its target DivL DHp and CA domains fused to YFP (Caulobacter crescentus). Nature of the assay: FRET or BRET.

Sequence of DivL DHp and CA domains fused to YFP (Caulobacter crescentus) (Q9RQQ9 547-758): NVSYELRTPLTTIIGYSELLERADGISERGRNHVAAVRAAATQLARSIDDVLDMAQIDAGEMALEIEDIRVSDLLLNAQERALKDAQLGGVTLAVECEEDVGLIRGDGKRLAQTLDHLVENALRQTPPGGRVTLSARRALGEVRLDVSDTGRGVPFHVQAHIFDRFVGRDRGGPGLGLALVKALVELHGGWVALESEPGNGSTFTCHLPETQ

With “DivK~P-CFP (DivK-CFP phosphorylated by DivJ and ATP) (natural protein)”, the FRET efficiency relative to the longer version of DivL turned out to be 85%.
